The values that follow are results of earlier work, collected in PMC554781.

The target of this data set is CD200R (Homo sapiens) (UniProt Q8TD46).
Chain of UniProt Q8TD46 (Q8TD46 25-265): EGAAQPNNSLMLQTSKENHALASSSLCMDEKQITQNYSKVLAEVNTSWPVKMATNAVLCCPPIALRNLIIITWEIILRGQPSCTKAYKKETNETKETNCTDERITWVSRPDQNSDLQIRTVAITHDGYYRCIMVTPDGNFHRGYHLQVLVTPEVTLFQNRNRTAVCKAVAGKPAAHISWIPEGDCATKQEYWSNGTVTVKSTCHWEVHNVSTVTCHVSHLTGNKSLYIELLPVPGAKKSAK

Regarding CD200 (from UniProt P41217), the dissociation constant (Kd) (commonly the free concentration of one partner at which half of the binding sites on the other are occupied at equilibrium, for simple one-to-one binding) was 500 nM.
